The target in experiment [1] is His-tagged recombinant full-length ApoE4, 10xHIS-ApoE4(1-299) (human) (UniProt P02649). As to the kind of experiment: direct ELISA, target coated at 1 ug/ml, antibody in 3-fold dilutions from 500 ng/ml, OD 450 nm.
Experiment [2] concerns the target recombinant C-terminal ApoE fragment G200-HIS (ApoE-G200-H299-10xHIS) (human) (UniProt P02649). The experiment is described as above.
The target is the same in experiment [3]. As to the kind of experiment: direct ELISA, target coated at 1 ug/ml, reference antibody in 3-fold dilutions from 1000 ng/ml, OD 450 nm. For orientation: ELISA stands for enzyme-linked immunosorbent assay.
Experiment [4] concerns the target recombinant full-length ApoE4 (aa 1-299; SEQ ID NO:45; Abcam cat. no. ab50243) (human) (UniProt P02649). Described as above.
In experiment [5] the target is recombinant C-terminal ApoE fragment L198-HIS (ApoE-L198-H299-10xHIS) (human) (UniProt P02649). As to the kind of experiment: direct ELISA; proteins coated at 0.1 uM, BSA peptides at 1 ug/ml; antibody in 3-fold dilutions from 3000 ng/ml; blank reduced OD 450 nm.
For experiment [6], the target named is recombinant full-length ApoE4 (aa 1-299; SEQ ID NO:45; Abcam cat. no. ab50243) (human) (UniProt P02649). The experiment is described as above.
Experiment [7] has as its target recombinant C-terminal ApoE fragment A199-HIS (ApoE-A199-H299-10xHIS) (human) (UniProt P02649). The experiment is described as above.
The target of experiment [8] is recombinant full-length ApoE4 (aa 1-299; SEQ ID NO:45; Abcam cat. no. ab50243) (human) (UniProt P02649). The experiment is described as above. This is another data set of the same source.
Experiment [9] addresses recombinant C-terminal ApoE fragment G200-HIS (ApoE-G200-H299-10xHIS) (human) (UniProt P02649). As to the kind of experiment: direct ELISA, second protocol; proteins coated at 0.1 uM, BSA peptides at 1 ug/ml; antibody in 3-fold dilutions from 3000 ng/ml; blank reduced OD 450 nm.
In experiment [10] the target is recombinant full-length ApoE4 (aa 1-299; SEQ ID NO:45; Abcam cat. no. ab50243) (human) (UniProt P02649). Described as above.

recombinant full-length ApoE4 (aa 1-299; SEQ ID NO:45; Abcam cat. no. ab50243) (human), sequence (P02649 19-317 C130R limits assumed): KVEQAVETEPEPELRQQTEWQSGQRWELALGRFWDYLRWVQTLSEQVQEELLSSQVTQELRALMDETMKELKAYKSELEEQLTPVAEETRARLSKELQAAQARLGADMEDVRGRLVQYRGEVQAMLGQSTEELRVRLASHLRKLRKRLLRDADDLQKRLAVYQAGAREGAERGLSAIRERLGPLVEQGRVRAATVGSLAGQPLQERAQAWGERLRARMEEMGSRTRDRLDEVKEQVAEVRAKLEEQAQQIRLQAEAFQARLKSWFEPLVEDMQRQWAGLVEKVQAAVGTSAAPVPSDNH
recombinant C-terminal ApoE fragment G200-HIS (ApoE-G200-H299-10xHIS) (human), sequence (P02649 other isoform, or with tags, fused parts or gaps limits assumed): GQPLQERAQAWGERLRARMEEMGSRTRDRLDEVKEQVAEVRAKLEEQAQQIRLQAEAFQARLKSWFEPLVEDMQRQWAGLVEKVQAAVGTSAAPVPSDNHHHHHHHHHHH
recombinant C-terminal ApoE fragment A199-HIS (ApoE-A199-H299-10xHIS) (human), sequence (P02649 other isoform, or with tags, fused parts or gaps limits assumed): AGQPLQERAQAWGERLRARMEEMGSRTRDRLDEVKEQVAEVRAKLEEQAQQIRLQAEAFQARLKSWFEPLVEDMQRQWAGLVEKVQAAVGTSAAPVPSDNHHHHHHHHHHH
His-tagged recombinant full-length ApoE4, 10xHIS-ApoE4(1-299) (human), sequence (P02649 other isoform, or with tags, fused parts or gaps limits assumed): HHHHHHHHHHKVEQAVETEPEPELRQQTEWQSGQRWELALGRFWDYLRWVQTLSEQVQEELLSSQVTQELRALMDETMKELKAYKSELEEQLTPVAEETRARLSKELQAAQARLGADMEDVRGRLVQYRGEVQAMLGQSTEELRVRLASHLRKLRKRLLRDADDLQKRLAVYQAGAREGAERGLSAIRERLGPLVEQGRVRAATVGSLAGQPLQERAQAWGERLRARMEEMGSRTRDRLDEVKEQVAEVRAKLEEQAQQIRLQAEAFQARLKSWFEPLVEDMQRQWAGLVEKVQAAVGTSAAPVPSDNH
recombinant C-terminal ApoE fragment L198-HIS (ApoE-L198-H299-10xHIS) (human), sequence (P02649 other isoform, or with tags, fused parts or gaps limits assumed): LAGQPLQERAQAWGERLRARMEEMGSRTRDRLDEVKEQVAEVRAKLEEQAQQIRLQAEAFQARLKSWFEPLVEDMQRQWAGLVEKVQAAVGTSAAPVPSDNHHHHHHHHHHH

Take “reference anti-ApoE C-terminal antibody ApoE E-8 mouse monoclonal (Santa Cruz Biotechnology, cat. no. sc-393302)”: the EC50 (read off the curve) in [1] was 4 ng/mL; in [2], 4 ng/mL; in experiment [3], 5 ng/mL; in [4] it was 4 ng/mL; in experiment [5], 2 ng/mL; in experiment [6] it was 8 ng/mL. For the same substance, the EC50 (read off the curve) in [7] worked out at 5 ng/mL; in experiment [8] it was 6 ng/mL; in [9], 4 ng/mL; in experiment [10], 4 ng/mL.

In general, EC50 (read off the curve) refers to the concentration that produces a half-maximal response.

Values taken from patent US20220242939A1.
